Measurements reported in publication PMC8459022 (Frontiers in Plant Science, 2021).

Assays:
[1] = molecular target: T1, recombinant human PD-1 His tag protein (Homo sapiens, UniProt Q15116); test: cell-based or functional assay
T1 sequence (Q15116 25-170): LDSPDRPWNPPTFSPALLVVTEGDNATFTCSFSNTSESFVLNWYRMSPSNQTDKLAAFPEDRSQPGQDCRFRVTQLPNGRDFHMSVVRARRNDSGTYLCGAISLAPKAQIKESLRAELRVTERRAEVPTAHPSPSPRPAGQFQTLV

[2] = molecular target: T1, recombinant human PD-1 His tag protein; test: SPR; Biacore T200, antibody (3 ug/ml) captured on protein G sensor chip in HBS-EP; single-cycle kinetics with human PD-1 His tag at 10, 20, 40, 80 and 160 nM, 30 ul/min, 60 s association, 120 s dissociation; Langmuir 1:1 model; details: both partners purified
[3] = molecular target: T2, recombinant human PD-1 His tag protein (Homo sapiens, UniProt Q15116); test: SPR; Biacore T200; antibodies (3 ug/ml in HBS-EP) captured on a protein G sensor chip; human PD-1 His tag injected at 10, 20, 40, 80 and 160 nM, single-cycle kinetics, 30 ul/min, 60 s association, 120 s dissociation; Langmuir 1:1 model; details: both partners purified
T2 construct: programmed cell death protein 1 (PD-1), human; recombinant, R&D Systems 8986-PD; also called programmed cell death protein 1; source: bought: R&D Systems
T2 sequence (Q15116 25-170): as above

B1: plant-produced Pembrolizumab (antibody, V domains shown)
VH: QVQLVQSGVEVKKPGASVKVSCKASGYTFTNYYMYWVRQAPGQGLEWMGGINPSNGGTNFNEKFKNRVTLTTDSSTTTAYMELKSLQFDDTAVYYCARRDYRFDMGFDYWGQGTTVTVSS
VL: EIVLTQSPATLSLSPGERATLSCRASKGVSTSGYSYLHWYQQKPGQAPRLLIYLASYLESGVPARFSGSGSGTDFTLTISSLEPEDFAVYYCQHSRDLPLTFGGGTKVEIK
notes: Pembrolizumab heavy chain; DrugBank DB09037; Pembrolizumab light chain (kappa); IgG4 kappa antibody; assembled as full IgG (150 kDa) by non-reducing SDS-PAGE and SEC; also called Pem WT; anti-human PD-1 monoclonal antibody produced in Nicotiana benthamiana; copies: 2 + 2
- PD-1/PD-L1 blockade bioassay (luciferase reporter; Jurkat/PD-1 effector cells with CHO-K1/PD-L1 cells, 6 h); EC50 of blocking PD-1 with PD-L1 [1]: 0.147 µg/mL
- Kd [2]: 8.51 nM

B2: Keytruda (mammalian cell-produced commercial Pembrolizumab) (antibody, V domains shown)
VH: QVQLVQSGVEVKKPGASVKVSCKASGYTFTNYYMYWVRQAPGQGLEWMGGINPSNGGTNFNEKFKNRVTLTTDSSTTTAYMELKSLQFDDTAVYYCARRDYRFDMGFDYWGQGTTVTVSS
VL: EIVLTQSPATLSLSPGERATLSCRASKGVSTSGYSYLHWYQQKPGQAPRLLIYLASYLESGVPARFSGSGSGTDFTLTISSLEPEDFAVYYCQHSRDLPLTFGGGTKVEIK
notes: Pembrolizumab heavy chain; as the heavy chain of m1 without the C-terminal SEKDEL; DrugBank DB09037; Pembrolizumab light chain; as the light chain of m1; Commercial drug product used as the positive control and comparator; source: bought: commercial Keytruda, mammalian cell-produced
- PD-1/PD-L1 blockade bioassay (luciferase reporter; Jurkat/PD-1 effector cells with CHO-K1/PD-L1 cells, 6 h); EC50 of blocking PD-1 with PD-L1 [1]: 0.147 µg/mL
- Kd [2]: 8.26 nM

B3: commercial Pembrolizumab (Keytruda) (antibody, V domains shown)
VH: QVQLVQSGVEVKKPGASVKVSCKASGYTFTNYYMYWVRQAPGQGLEWMGGINPSNGGTNFNEKFKNRVTLTTDSSTTTAYMELKSLQFDDTAVYYCARRDYRFDMGFDYWGQGTTVTVSS
VL: EIVLTQSPATLSLSPGERATLSCRASKGVSTSGYSYLHWYQQKPGQAPRLLIYLASYLESGVPARFSGSGSGTDFTLTISSLEPEDFAVYYCQHSRDLPLTFGGGTKVEIK
notes: Pembrolizumab heavy chain; as the heavy chain of Wm1 without the C-terminal SEKDEL; Pembrolizumab light chain; as the light chain of Wm1; The commercial drug; also called mammalian cell-produced Pembrolizumab; source: bought: commercial Pembrolizumab (Keytruda), mammalian cell-produced
- koff [3]: 0.00339 s⁻¹
- kon [3]: 410000 M⁻¹ s⁻¹
